Measurements from the supplement of paper PMC10567573.

B1: TRAF3IP2 (parent)
chain: FMEKRNQWLVSQLSAASPDTGHDS
B2: FAM46C (parent)
chain: VRSRLEEAGIKVHDVRLNGSAAGH

Variants of: B1
Assay: protein stability index of a GFP-peptide fusion (GPS, HEK-293T) (PSI 1-6); higher = more stable
Settings: c terminus: a fixed tail appended
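Note: lentivirally expressed fusions sorted by FACS into six bins by GFP to DsRed ratio, PSI derived from sequencing read proportions per bin multiplied by bin number.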

Protein stability index of substitutions, site by site:
F1: P 3.95; G 4.26; I 3.72; A 4.91; N 4.36; D 5.05; C 3.98; E 4.77; M 3.56; S 4.37; Q 4.88; W 3.17; H 4.84; V 4.55; Y 2.84; K 3.71; T 4.2; L 3.88; R 4.48
R5: E 3.5; D 2.99; A 1.97; C 2.25
E3: K 2.91; A 3; F 2.94; C 1.58; M 2.28; P 1.93; N 1.97; I 2.32; R 1.05; L 2.75; Q 2.27; W 1.81; D 2.24; S 1.77; T 3.83; Y 3.02; V 1.95; H 1.71
K4: H 2.16; T 2.52; I 2.6; M 2.51; S 2.24; F 2.35; N 2.38; Q 2.57; P 2.36; Y 2.17; A 1.71; D 3; E 3.69; W 1.3; R 2.54; L 2.26; G 1.89
M2: F 3.6; W 3.41; T 2.55; D 3.06; E 4.75; N 3.29; C 2.94; L 2.46; Y 2.97; R 3.56; H 1.58; Q 3.27; I 1.25; P 1.42; K 4.28; S 2.2

Variants of: B2
Assay: as above
Settings: c terminus: a fixed tail appended

Protein stability index of substitutions, site by site:
V15: D 5.04; H 4.22; I 2.06; N 3.62; F 3.57; P 3.65; A 4.24; M 3.41; L 2.76; K 3.44; C 2.42; Y 2.61; S 3.35; R 3.75; E 3.27
G19: R 2.22; S 2.09; H 2.54; P 1.55; Q 2.74; D 2.26; F 2.44; A 2.19; L 2.16; T 1.74; V 1.79; E 3.77; I 3.83; M 1.83
V12: W 2.77; E 4.73; L 2.56; H 3.6; P 4.06; G 4.04; Q 4.06; T 2.29; A 3.93; K 4.25; Y 3.33; R 4.44; M 3.25; S 3.93; N 4.04; F 3.04; I 2.67
K11: G 3.13; V 2.36; H 1.99; W 2.69; E 2.89; Q 2.74; L 3.83; F 1.51; S 3.76; T 4.08; M 2.01; I 1.63; A 3.94; C 2.73; N 3.82
E6: R 2.59; T 2.44; W 1.64; N 3.54; P 3.71; F 2.46; H 2.9; Y 2.1; M 1.71; I 2.54; S 2.7; G 3.06; Q 3.22
A22: I 2.74; S 2.17; Y 1.94; E 2.12; V 3.25; F 1.25; C 1.65; N 2.25; W 2.68; P 2.37; G 2.86; M 2.66; Q 2.1; R 2.17
G23: D 2.44; K 2.25; I 1.6; L 1.64; S 2.6; Q 1.2; E 2.3; W 2.18; H 2.85; V 1.82; C 1.64; N 2.55; T 3.09; A 2.92; M 1.62; R 2.38; F 2.94; Y 2.18
L17: E 4.2; F 2.47; G 4.55; P 2.6; K 4.53; I 2.53; R 3.52; D 4; N 3.75; Q 4.23; V 2.67; C 2.61; A 3.15; S 4.33
H13: D 1.02; Q 2.42; Y 1.25; F 1.74; S 1.19; E 4.06; A 2.98; G 4.18; I 1.03; P 4.08; M 1.53; N 2.74; T 1.86; W 2.02; R 2.32; K 2.02
N18: D 2.81; P 3.12; Q 1.96; T 1.87; C 2.64; E 1.53; M 3.59; L 1.16; Y 1.62; V 2.7; K 3.56; S 4.1; W 2.13; G 2.02
A21: K 4.25; D 3.13; I 2.44; W 1.56; R 2.83; T 2.51; G 3.12; E 2.53; C 1.73; S 2.32; P 1.8; Q 1.72; Y 1.56
E7: I 2.48; W 1.99; G 3.06; Y 2.8; C 1.47; P 3.78; T 2.51; F 2.49; K 2.45; R 3.32; S 2.5; H 2.37
A8: R 1.96; D 4.49; Y 1.13; W 2.19; T 3.2; M 2.58; I 1.66; P 3.88; F 1.85; K 3.38; H 3.12; E 4.46; N 3.17
R16: S 2.68; Y 2.64; E 4.63; K 2.49; H 2.54; F 2.25; Q 2.68; D 4.37; V 2.63; W 1.66
G9: Q 3.88; M 3.15; W 2.81; C 3.03; L 2.26; V 2.88; D 3.89; A 2.76; K 2.75; S 3.9; T 2.97; P 3.67; H 4.57; N 3.91; R 3.88; Y 2.51; I 1.44
I10: T 3.78; Y 1.75; S 3.9; C 2.89; F 2.12; A 3.63; R 3.41; P 4.56; M 3.78; V 4.24; G 4.5
D14: C 2.33; I 1.29; T 2.8; Y 2.74; P 4.54; S 2.64; L 2.43; Q 2.56; E 2.4; H 3.04; M 1.79; W 1.62
H24: I 2.01; N 3.78; A 3.06; P 2.76; M 2.15; D 2.7; Q 2.67; E 3.66; S 3.07; W 3.51
S20: V 2.61; G 1.94; N 3.2; Q 2.63; A 2.61; T 1.56; H 2.16; C 2.45; P 1.95; F 1.35; L 2; K 2.28
